The target of experiment [1] is T1, cell surface human Tim-3 on Tim-3 DO11.10 cells (human, UniProt Q8TDQ0 22-301).
T1 construct: whole, on cells; Also used as the target for the mixed lymphocyte reaction rows, where Tim-3 is on primary human cells; also called Tim-3 D011.10 cells
T1 sequence (looked up): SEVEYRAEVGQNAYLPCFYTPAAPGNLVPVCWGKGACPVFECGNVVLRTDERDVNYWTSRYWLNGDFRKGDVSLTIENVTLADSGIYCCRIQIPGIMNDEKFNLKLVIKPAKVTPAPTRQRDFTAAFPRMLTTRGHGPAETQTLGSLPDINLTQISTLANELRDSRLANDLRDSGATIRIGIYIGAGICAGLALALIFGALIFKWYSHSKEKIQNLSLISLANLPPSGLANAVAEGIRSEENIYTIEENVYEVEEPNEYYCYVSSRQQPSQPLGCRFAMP
As to the kind of experiment: flow cytometry, A488-labelled antibody on Tim-3 DO11.10 cells. (A flow cytometer gives signals particle by particle.)

Experiment [2] concerns the target T2, human Tim-3-Fc (R&D Systems) (human, UniProt Q8TDQ0 22-130, biotinylated in the phosphatidylserine assay; ruthenylated (sulfo-tag NHS-ester) in the galectin-9 assay).
T2 construct: Bought protein; Supplier is not repeated for the CEACAM1 assay; also called hTIM-3-Fc; hTIM-3-Fc Biotin; not shown: Fc part of the bought fusion protein
T2 sequence: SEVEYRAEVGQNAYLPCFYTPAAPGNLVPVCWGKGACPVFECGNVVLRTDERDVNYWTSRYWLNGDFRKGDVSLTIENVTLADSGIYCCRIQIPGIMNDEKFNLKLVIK
Kind of experiment: flow cytometry, blocking of biotinylated hTIM-3-Fc binding to phosphatidylserine on camptothecin-treated DO11.10 cells.

For experiment [3], the target named is T2, human Tim-3-Fc (R&D Systems). Kind of experiment: ELISA, human Tim-3-Fc coated, anti-human IgG F(ab')2-HRP detection. (ELISA stands for enzyme-linked immunosorbent assay.)
Experiment [4] concerns the target T3, human Tim-3-IgV-Fc single arm antigen (SAG) (human).
T3 construct: Construct is only named; its build is not described; also called Tim-3 SAG; not shown: Fc part; second Fc arm of the single arm antigen; not described
T3 sequence (Q8TDQ0 whole entry, looked up): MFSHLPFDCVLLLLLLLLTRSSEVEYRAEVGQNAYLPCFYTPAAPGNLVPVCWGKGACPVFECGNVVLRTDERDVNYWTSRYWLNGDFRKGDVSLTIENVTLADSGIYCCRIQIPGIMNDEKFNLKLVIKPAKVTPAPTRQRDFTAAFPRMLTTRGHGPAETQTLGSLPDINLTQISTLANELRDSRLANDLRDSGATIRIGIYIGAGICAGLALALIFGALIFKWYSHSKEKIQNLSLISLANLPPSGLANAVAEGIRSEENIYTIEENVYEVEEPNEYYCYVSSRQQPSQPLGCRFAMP
Kind of experiment: SPR Biacore T100, antibody captured on Human Fab Binder, Tim-3 SAG as analyte, 1:1 Langmuir with mass transport. (In general: Surface plasmon resonance follows binding to a sensor surface in real time, without labels.)

Experiment [5] concerns the target T2, human Tim-3-Fc (R&D Systems). Kind of experiment: MSD plate competition assay, ruthenylated hTim-3-Fc binding to coated galectin-9-biotin; competitor galectin-9.
The target in experiment [6] is T4, hTim-3-IgV-FLAG (human, UniProt Q8TDQ0 22-130, density indicating glycosylation at Asn99).
T4 construct: Purified from 293HEK supernatant; also called hTim-3-FLAG; human Tim-3 IgV domain; not shown: FLAG tag
T4 sequence: T2 sequence
As to the kind of experiment: SPR Biacore T200, Fab captured, hTim-3-IgV-FLAG as analyte, HBS-EP, 25 C, 1:1 binding.

Experiment [7] addresses human PD-1 on CHO cells (human, UniProt Q15116 25-288). Kind of experiment: flow cytometry, CHO cells with human PD-1 incubated with antibody 100 nM, then PD-L2-FITC; competitor PD-L2-FITC.

Chain of human PD-1 on CHO cells (Q15116 25-288 limits assumed): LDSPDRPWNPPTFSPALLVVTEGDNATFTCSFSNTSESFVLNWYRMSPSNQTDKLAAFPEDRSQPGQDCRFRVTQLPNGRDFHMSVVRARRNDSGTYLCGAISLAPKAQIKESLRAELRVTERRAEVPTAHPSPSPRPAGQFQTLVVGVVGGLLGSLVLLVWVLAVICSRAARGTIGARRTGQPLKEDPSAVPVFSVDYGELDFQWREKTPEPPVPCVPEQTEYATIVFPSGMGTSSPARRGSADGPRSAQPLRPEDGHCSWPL

B1: Antibody A (anti-Tim-3 Antibody) (antibody, human IgG1, kappa, V domains shown)
VH: EVQLLESGGGLVQPGGSLRLSCAASGFTFSSYYMSWVRQAPGKGLEWVSAISGSGGSTYYADSVKGRFTISRDNSKNTLYLQMNSLRAEDTAVYYCARYARTAFDLWGQGTLVTVSS
VL: DIVMTQSPSSLSASVGDGVTITCQASQDIYNYLNWYQQKPGKAPKLLIYAASSLQSGVPSRFSGSGSGTDFTLTISSLQPEDFATYYCQQANSFPPTFGQGTKLEIKR
notes: Full IgG; also called anti-human Tim-3
A word on the EC50: it is the concentration at which the effect is half-maximal. Lower therefore signals a more potent agent. For orientation: IC50 means the concentration that inhibits the measured activity by half. The Kd is a measure of binding affinity in units of concentration. A higher Kd goes with a looser complex. As usually defined, the koff is a measure of how fast the partners let go of each other. A high value points to fast dissociation. The kon is the rate constant with which the complex forms. Low readings indicate slower complex formation, high ones faster complex formation. With B1, the 50% effective concentration (EC50) in experiment [1] was 90 pM; in experiment [3], 20.7 pM. Also, the figures for the IC50 in experiment [2] and in experiment [5] were 320 pM and 5600 pM, respectively. Also, the Kd in experiment [4] came to 398 pM. This molecule yielded a koff in experiment [4] of 0.000927 s⁻¹. Also, in experiment [4], the kon was 2.33e+06 M⁻¹ s⁻¹.

B2: Antibody A-Fab (Fab, V domains shown)
VH: B1 VH
VL: B1 VL
notes: Made by clipping Antibody A with immobilized papain; the Fc part was not present in the assay; also called Fab for Antibody A
In experiment [6], B2 returned a Kd of 7920 pM, a koff of 0.00286 s⁻¹ and a kon of 362000 M⁻¹ s⁻¹.

B3: Antibody D in IgG1 format (antibody, V domains shown)
VH: QVQLVQSGAEVKKPGSSVKVSCKASGGTFSSYAISWVRQAPGQGLEWMGLIIPMFDTAGYAQKFQGRVAITVDESTSTAYMELSSLRSEDTAVYYCARAEHSSTGTFDYWGQGTLVTVSS
VL: DIQMTQSPSSVSASVGDRVTITCRASQGISSWLAWYQQKPGKAPKLLISAASSLQSGVPSRFSGSGSGTDFTLTISSLQPEDFATYYCQQANHLPFTFGGGTKVEIK
notes: IgG1 format, expressed in yeast; also called Antibody D, in IgG1 format and expressed in yeast
Take B3: in experiment [7], the “MFI (PD-L2-FITC) in presence of the antibody” value is 24700.

Values taken from patent US20190276534A1 (Eli Lilly, published 2019).
